According to US20220298218A1 (ANTAG THERAPEUTICS, published 2022):
Where two headings read alike, the source gives them in different places. *1 amine or outer side, *2 acyl side, *3 side chain or, on linkers, in order; H or OH if unused. Where no end group is shown, it is not given here. Side-chain parts run from the residue outwards. The star is where a group is joined. C18 diacid = O=C(O)CCCCCCCCCCCCCCCCC(=O)*; C16 diacid = O=C(O)CCCCCCCCCCCCCCC(=O)*; γGlu = O=C(O)[C@H](CCC(=O)[*:2])N[*:1]; AEEA = NCCOCCOCC(=O)O

T1: human GIP receptor (human, UniProt P48546 22-466)
T1 sequence (looked up): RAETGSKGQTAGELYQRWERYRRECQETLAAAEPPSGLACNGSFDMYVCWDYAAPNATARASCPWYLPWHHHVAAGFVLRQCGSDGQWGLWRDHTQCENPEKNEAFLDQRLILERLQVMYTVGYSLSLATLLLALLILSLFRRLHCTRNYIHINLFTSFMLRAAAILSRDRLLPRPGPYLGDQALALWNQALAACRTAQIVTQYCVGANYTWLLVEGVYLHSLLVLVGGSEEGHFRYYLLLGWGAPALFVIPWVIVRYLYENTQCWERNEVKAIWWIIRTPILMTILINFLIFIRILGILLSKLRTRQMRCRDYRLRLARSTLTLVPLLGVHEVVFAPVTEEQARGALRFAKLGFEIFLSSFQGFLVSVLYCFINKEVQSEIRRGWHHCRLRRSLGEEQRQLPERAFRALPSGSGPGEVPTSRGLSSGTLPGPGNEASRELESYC

B1: AT440 (peptide)
peptide: SGTFISDYSIAMDRIK([AEEA-AEEA-AEEA-γGlu-C16 diacid])QQDFVNWLLAQRGPSSGAPPPS-OH
modifications: N-terminus assumed
SMILES: CC[C@H](C)[C@H](NC(=O)[C@H](CO)NC(=O)[C@H](Cc1ccc(O)cc1)NC(=O)[C@H](CC(=O)O)NC(=O)[C@H](CO)NC(=O)[C@@H](NC(=O)[C@H](Cc1ccccc1)NC(=O)[C@@H](NC(=O)CNC(=O)[C@@H](N)CO)[C@@H](C)O)[C@@H](C)CC)C(=O)N[C@@H](C)C(=O)N[C@@H](CCSC)C(=O)N[C@@H](CC(=O)O)C(=O)N[C@@H](CCCNC(=N)N)C(=O)N[C@H](C(=O)N[C@@H](CCCCNC(=O)COCCOCCNC(=O)COCCOCCNC(=O)COCCOCCNC(=O)CC[C@H](NC(=O)CCCCCCCCCCCCCCC(=O)O)C(=O)O)C(=O)N[C@@H](CCC(N)=O)C(=O)N[C@@H](CCC(N)=O)C(=O)N[C@@H](CC(=O)O)C(=O)N[C@@H](Cc1ccccc1)C(=O)N[C@H](C(=O)N[C@@H](CC(N)=O)C(=O)N[C@@H](Cc1c[nH]c2ccccc12)C(=O)N[C@@H](CC(C)C)C(=O)N[C@@H](CC(C)C)C(=O)N[C@@H](C)C(=O)N[C@@H](CCC(N)=O)C(=O)N[C@@H](CCCNC(=N)N)C(=O)NCC(=O)N1CCC[C@H]1C(=O)N[C@@H](CO)C(=O)N[C@@H](CO)C(=O)NCC(=O)N[C@@H](C)C(=O)N1CCC[C@H]1C(=O)N1CCC[C@H]1C(=O)N1CCC[C@H]1C(=O)N[C@@H](CO)C(=O)O)C(C)C)[C@@H](C)CC
B2: AT442 (peptide)
peptide: SGTFISDYSIAMDRIK([AEEA-AEEA-AEEA-γGlu-C18 diacid])QQDFVNWLLAQRGPSSGAPPPS-OH
modifications: N-terminus assumed
SMILES: CC[C@H](C)[C@H](NC(=O)[C@H](CO)NC(=O)[C@H](Cc1ccc(O)cc1)NC(=O)[C@H](CC(=O)O)NC(=O)[C@H](CO)NC(=O)[C@@H](NC(=O)[C@H](Cc1ccccc1)NC(=O)[C@@H](NC(=O)CNC(=O)[C@@H](N)CO)[C@@H](C)O)[C@@H](C)CC)C(=O)N[C@@H](C)C(=O)N[C@@H](CCSC)C(=O)N[C@@H](CC(=O)O)C(=O)N[C@@H](CCCNC(=N)N)C(=O)N[C@H](C(=O)N[C@@H](CCCCNC(=O)COCCOCCNC(=O)COCCOCCNC(=O)COCCOCCNC(=O)CC[C@H](NC(=O)CCCCCCCCCCCCCCCCC(=O)O)C(=O)O)C(=O)N[C@@H](CCC(N)=O)C(=O)N[C@@H](CCC(N)=O)C(=O)N[C@@H](CC(=O)O)C(=O)N[C@@H](Cc1ccccc1)C(=O)N[C@H](C(=O)N[C@@H](CC(N)=O)C(=O)N[C@@H](Cc1c[nH]c2ccccc12)C(=O)N[C@@H](CC(C)C)C(=O)N[C@@H](CC(C)C)C(=O)N[C@@H](C)C(=O)N[C@@H](CCC(N)=O)C(=O)N[C@@H](CCCNC(=N)N)C(=O)NCC(=O)N1CCC[C@H]1C(=O)N[C@@H](CO)C(=O)N[C@@H](CO)C(=O)NCC(=O)N[C@@H](C)C(=O)N1CCC[C@H]1C(=O)N1CCC[C@H]1C(=O)N1CCC[C@H]1C(=O)N[C@@H](CO)C(=O)O)C(C)C)[C@@H](C)CC
B3: AT438 (peptide)
peptide: SGTFISDYSIAMDKIK([AEEA-AEEA-AEEA-γGlu-C18 diacid])QQDFVNWLLAQKGPSSGAPPPS-OH
modifications: N-terminus assumed
SMILES: CC[C@H](C)[C@H](NC(=O)[C@H](CO)NC(=O)[C@H](Cc1ccc(O)cc1)NC(=O)[C@H](CC(=O)O)NC(=O)[C@H](CO)NC(=O)[C@@H](NC(=O)[C@H](Cc1ccccc1)NC(=O)[C@@H](NC(=O)CNC(=O)[C@@H](N)CO)[C@@H](C)O)[C@@H](C)CC)C(=O)N[C@@H](C)C(=O)N[C@@H](CCSC)C(=O)N[C@@H](CC(=O)O)C(=O)N[C@@H](CCCCN)C(=O)N[C@H](C(=O)N[C@@H](CCCCNC(=O)COCCOCCNC(=O)COCCOCCNC(=O)COCCOCCNC(=O)CC[C@H](NC(=O)CCCCCCCCCCCCCCCCC(=O)O)C(=O)O)C(=O)N[C@@H](CCC(N)=O)C(=O)N[C@@H](CCC(N)=O)C(=O)N[C@@H](CC(=O)O)C(=O)N[C@@H](Cc1ccccc1)C(=O)N[C@H](C(=O)N[C@@H](CC(N)=O)C(=O)N[C@@H](Cc1c[nH]c2ccccc12)C(=O)N[C@@H](CC(C)C)C(=O)N[C@@H](CC(C)C)C(=O)N[C@@H](C)C(=O)N[C@@H](CCC(N)=O)C(=O)N[C@@H](CCCCN)C(=O)NCC(=O)N1CCC[C@H]1C(=O)N[C@@H](CO)C(=O)N[C@@H](CO)C(=O)NCC(=O)N[C@@H](C)C(=O)N1CCC[C@H]1C(=O)N1CCC[C@H]1C(=O)N1CCC[C@H]1C(=O)N[C@@H](CO)C(=O)O)C(C)C)[C@@H](C)CC
B4: AT436 (peptide)
peptide: SGTFISDYSIAMDKIK([AEEA-AEEA-AEEA-γGlu-C16 diacid])QQDFVNWLLAQKGPSSGAPPPS-OH
modifications: N-terminus assumed
SMILES: CC[C@H](C)[C@H](NC(=O)[C@H](CO)NC(=O)[C@H](Cc1ccc(O)cc1)NC(=O)[C@H](CC(=O)O)NC(=O)[C@H](CO)NC(=O)[C@@H](NC(=O)[C@H](Cc1ccccc1)NC(=O)[C@@H](NC(=O)CNC(=O)[C@@H](N)CO)[C@@H](C)O)[C@@H](C)CC)C(=O)N[C@@H](C)C(=O)N[C@@H](CCSC)C(=O)N[C@@H](CC(=O)O)C(=O)N[C@@H](CCCCN)C(=O)N[C@H](C(=O)N[C@@H](CCCCNC(=O)COCCOCCNC(=O)COCCOCCNC(=O)COCCOCCNC(=O)CC[C@H](NC(=O)CCCCCCCCCCCCCCC(=O)O)C(=O)O)C(=O)N[C@@H](CCC(N)=O)C(=O)N[C@@H](CCC(N)=O)C(=O)N[C@@H](CC(=O)O)C(=O)N[C@@H](Cc1ccccc1)C(=O)N[C@H](C(=O)N[C@@H](CC(N)=O)C(=O)N[C@@H](Cc1c[nH]c2ccccc12)C(=O)N[C@@H](CC(C)C)C(=O)N[C@@H](CC(C)C)C(=O)N[C@@H](C)C(=O)N[C@@H](CCC(N)=O)C(=O)N[C@@H](CCCCN)C(=O)NCC(=O)N1CCC[C@H]1C(=O)N[C@@H](CO)C(=O)N[C@@H](CO)C(=O)NCC(=O)N[C@@H](C)C(=O)N1CCC[C@H]1C(=O)N1CCC[C@H]1C(=O)N1CCC[C@H]1C(=O)N[C@@H](CO)C(=O)O)C(C)C)[C@@H](C)CC
B5: AT415 (peptide)
peptide: EGTFISDYSIAMDKIK([AEEA-AEEA-γGlu-C16 diacid])QQDFVNWLLAQKGKKNDW-OH
modifications: N-terminus assumed
SMILES: CC[C@H](C)[C@H](NC(=O)[C@H](CO)NC(=O)[C@H](Cc1ccc(O)cc1)NC(=O)[C@H](CC(=O)O)NC(=O)[C@H](CO)NC(=O)[C@@H](NC(=O)[C@H](Cc1ccccc1)NC(=O)[C@@H](NC(=O)CNC(=O)[C@@H](N)CCC(=O)O)[C@@H](C)O)[C@@H](C)CC)C(=O)N[C@@H](C)C(=O)N[C@@H](CCSC)C(=O)N[C@@H](CC(=O)O)C(=O)N[C@@H](CCCCN)C(=O)N[C@H](C(=O)N[C@@H](CCCCNC(=O)COCCOCCNC(=O)COCCOCCNC(=O)CC[C@H](NC(=O)CCCCCCCCCCCCCCC(=O)O)C(=O)O)C(=O)N[C@@H](CCC(N)=O)C(=O)N[C@@H](CCC(N)=O)C(=O)N[C@@H](CC(=O)O)C(=O)N[C@@H](Cc1ccccc1)C(=O)N[C@H](C(=O)N[C@@H](CC(N)=O)C(=O)N[C@@H](Cc1c[nH]c2ccccc12)C(=O)N[C@@H](CC(C)C)C(=O)N[C@@H](CC(C)C)C(=O)N[C@@H](C)C(=O)N[C@@H](CCC(N)=O)C(=O)N[C@@H](CCCCN)C(=O)NCC(=O)N[C@@H](CCCCN)C(=O)N[C@@H](CCCCN)C(=O)N[C@@H](CC(N)=O)C(=O)N[C@@H](CC(=O)O)C(=O)N[C@@H](Cc1c[nH]c2ccccc12)C(=O)O)C(C)C)[C@@H](C)CC
B6: AT416 (peptide)
peptide: EGTFISDYSIAMDKIK([AEEA-AEEA-AEEA-γGlu-C16 diacid])QQDFVNWLLAQKGKKNDW-OH
modifications: N-terminus assumed
SMILES: CC[C@H](C)[C@H](NC(=O)[C@H](CO)NC(=O)[C@H](Cc1ccc(O)cc1)NC(=O)[C@H](CC(=O)O)NC(=O)[C@H](CO)NC(=O)[C@@H](NC(=O)[C@H](Cc1ccccc1)NC(=O)[C@@H](NC(=O)CNC(=O)[C@@H](N)CCC(=O)O)[C@@H](C)O)[C@@H](C)CC)C(=O)N[C@@H](C)C(=O)N[C@@H](CCSC)C(=O)N[C@@H](CC(=O)O)C(=O)N[C@@H](CCCCN)C(=O)N[C@H](C(=O)N[C@@H](CCCCNC(=O)COCCOCCNC(=O)COCCOCCNC(=O)COCCOCCNC(=O)CC[C@H](NC(=O)CCCCCCCCCCCCCCC(=O)O)C(=O)O)C(=O)N[C@@H](CCC(N)=O)C(=O)N[C@@H](CCC(N)=O)C(=O)N[C@@H](CC(=O)O)C(=O)N[C@@H](Cc1ccccc1)C(=O)N[C@H](C(=O)N[C@@H](CC(N)=O)C(=O)N[C@@H](Cc1c[nH]c2ccccc12)C(=O)N[C@@H](CC(C)C)C(=O)N[C@@H](CC(C)C)C(=O)N[C@@H](C)C(=O)N[C@@H](CCC(N)=O)C(=O)N[C@@H](CCCCN)C(=O)NCC(=O)N[C@@H](CCCCN)C(=O)N[C@@H](CCCCN)C(=O)N[C@@H](CC(N)=O)C(=O)N[C@@H](CC(=O)O)C(=O)N[C@@H](Cc1c[nH]c2ccccc12)C(=O)O)C(C)C)[C@@H](C)CC

Columns and labels:
human GIP receptor [1] = target: T1, human GIP receptor; assay: cell-based or functional assay
human GIP receptor [2] = target: T1, human GIP receptor; assay: cell-based or functional assay; remark: listed apart in the source

Row | Binder | cAMP antagonism (human GIP receptor [1]) [nM] | cAMP antagonism % inhib (human GIP receptor [1]) [%] | cAMP antagonism log (human GIP receptor [1]) [log M] | cAMP agonism % Emax (human GIP receptor [2]) [%] | cAMP antagonism (human GIP receptor [2]) [nM] | cAMP antagonism % inhib (human GIP receptor [2]) [%] | cAMP antagonism pIC50 (human GIP receptor [2]) | cAMP agonism Emax (human GIP receptor [1])
1 | B1 | 103 | 100 | -7 | – | – | – | – | –
2 | B2 | 26 | 77 | -7.6 | – | – | – | – | –
3 | B3 | 54 | 100 | -7.3 | – | – | – | – | –
4 | B4 | 18 | 100 | -7.7 | – | – | – | – | –
5 | B5 | 55 | 87 | -7.3 | 0 | 13.6 | 87 | 7.9 | 4.6
6 | B6 | 52 | 90 | -7.3 | – | – | – | – | –
